# Laboratory results taken from IntAct's records for PubMed 31571211.
# B1: Phospholipid-transporting ATPase IG (Homo sapiens), Q8NB49 (parent)
# chain: MQMVPSLPPASECAGEEKRVGTRTVFVGNHPVSETEAYIAQRFCDNRIVSSKYTLWNFLPKNLFEQFRRIANFYFLIIFLVQVTVDTPTSPVTSGLPLFFVITVTAIKQGYEDCLRHRADNEVNKSTVYIIENAKRVRKESEKIKVGDVVEVQADETFPCDLILLSSCTTDGTCYVTTASLDGESNCKTHYAVRDTIALCTAESIDTLRAAIECEQPQPDLYKFVGRINIYSNSLEAVARSLGPENLLLKGATLKNTEKIYGVAVYTGMETKMALNYQGKSQKRSAVEKSINAFLIVYLFILLTKAAVCTTLKYVWQSTPYNDEPWYNQKTQKERETLKVLKMFTDFLSFMVLFNFIIPVSMYVTVEMQKFLGSFFISWDKDFYDEEINEGALVNTSDLNEELGQVDYVFTDKTGTLTENSMEFIECCIDGHKYKGVTQEVDGLSQTDGTLTYFDKVDKNREELFLRALCLCHTVEIKTNDAVDGATESAELTYISSSPDEIALVKGAKRYGFTFLGNRNGYMRVENQRKEIEEYELLHTLNFDAVRRRMSVIVKTQEGDILLFCKGADSAVFPRVQNHEIELTKVHVERNAMDGYRTLCVAFKEIAPDDYERINRQLIEAKMALQDREEKMEKVFDDIETNMNLIGATAVEDKLQDQAAETIEALHAAGLKVWVLTGDKMETAKSTCYACRLFQTNTELLELTTKTIEESERKEDRLHELLIEYRKKLLHEFPKSTRSFKKAWTEHQEYGLIIDGSTLSLILNSSQDSSSNNYKSIFLQICMKCTAVLCCRMAPLQKAQIVRMVKNLKGSPITLSIGDGANDVSMILESHVGIGIKGKEGRQAARNSDYSVPKFKHLKKLLLAHGHLYYVRIAHLVQYFFYKNLCFILPQFLYQFFCGFSQQPLYDAAYLTMYNICFTSLPILAYSLLEQHINIDTLTSDPRLYMKISGNAMLQLGPFLYWTFLAAFEGTVFFFGTYFLFQTASLEENGKVYGNWTFGTIVFTVLVFTVTLKLALDTRFWTWINHFVIWGSLAFYVFFSFFWGGIIWPFLKQQRMYFVFAQMLSSVSTWLAIILLIFISLFPEILLIVLKNVRRRSARRNLSCRRASDSLSARPSVRPLLLRTFSDESNVL
# partner: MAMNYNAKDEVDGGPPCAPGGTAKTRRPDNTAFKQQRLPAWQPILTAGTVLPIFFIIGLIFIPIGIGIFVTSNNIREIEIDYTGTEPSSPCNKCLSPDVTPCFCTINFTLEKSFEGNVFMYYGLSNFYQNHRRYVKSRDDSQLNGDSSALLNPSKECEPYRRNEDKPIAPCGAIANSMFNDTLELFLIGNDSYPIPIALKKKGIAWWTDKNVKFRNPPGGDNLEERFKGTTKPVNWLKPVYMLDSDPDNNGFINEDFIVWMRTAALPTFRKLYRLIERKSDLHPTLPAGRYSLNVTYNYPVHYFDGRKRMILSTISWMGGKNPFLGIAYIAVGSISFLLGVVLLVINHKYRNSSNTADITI
# B2: Phospholipid-transporting ATPase IH (Homo sapiens), P98196 (parent)
# chain: MDCSLVRTLVHRYCAGEENWVDSRTIYVGHREPPPGAEAYIPQRYPDNRIVSSKYTFWNFIPKNLFEQFRRVANFYFLIIFLVQLIIDTPTSPVTSGLPLFFVITVTAIKQGYEDWLRHKADNAMNQCPVHFIQHGKLVRKQSRKLRVGDIVMVKEDETFPCDLIFLSSNRGDGTCHVTTASLDGESSHKTHYAVQDTKGFHTEEDIGGLHATIECEQPQPDLYKFVGRINVYSDLNDPVVRPLGSENLLLRGATLKNTEKIFGVAIYTGMETKMALNYQSKSQKRSAVEKSMNAFLIVYLCILISKALINTVLKYMWQSEPFRDEPWYNQKTESERQRNLFLKAFTDFLAFMVLFNYIIPVSMYVTVEMQKFLGSYFITWDEDMFDEETGEGPLVNTSDLNEELGQVEYIFTDKTGTLTENNMEFKECCIEGHVYVPHVICNGQVLPESSGIDMIDSSPSVNGREREELFFRALCLCHTVQVKDDDSVDGPRKSPDGGKSCVYISSSPDEVALVEGVQRLGFTYLRLKDNYMEILNRENHIERFELLEILSFDSVRRRMSVIVKSATGEIYLFCKGADSSIFPRVIEGKVDQIRARVERNAVEGLRTLCVAYKRLIQEEYEGICKLLQAAKVALQDREKKLAEAYEQIEKDLTLLGATAVEDRLQEKAADTIEALQKAGIKVWVLTGDKMETAAATCYACKLFRRNTQLLELTTKRIEEQSLHDVLFELSKTVLRHSGSLTRDNLSGLSADMQDYGLIIDGAALSLIMKPREDGSSGNYRELFLEICRSCSAVLCCRMAPLQKAQIVKLIKFSKEHPITLAIGDGANDVSMILEAHVGIGVIGKEGRQAARNSDYAIPKFKHLKKMLLVHGHFYYIRISELVQYFFYKNVCFIFPQFLYQFFCGFSQQTLYDTAYLTLYNISFTSLPILLYSLMEQHVGIDVLKRDPTLYRDVAKNALLRWRVFIYWTLLGLFDALVFFFGAYFVFENTTVTSNGQIFGNWTFGTLVFTVMVFTVTLKLALDTHYWTWINHFVIWGSLLFYVVFSLLWGGVIWPFLNYQRMYYVFIQMLSSGPAWLAIVLLVTISLLPDVLKKVLCRQLWPTATERVQTKSQCLSVEQSTIFMLSQTSSSLSF
# partner: B1 partner
# B3: Phospholipid-transporting ATPase VA (Homo sapiens), O60312 (parent)
# chain: MEREPAGTEEPGPPGRRRRREGRTRTVRSNLLPPPGAEDPAAGAAKGERRRRRGCAQHLADNRLKTTKYTLLSFLPKNLFEQFHRPANVYFVFIALLNFVPAVNAFQPGLALAPVLFILAITAFRDLWEDYSRHRSDHKINHLGCLVFSREEKKYVNRFWKEIHVGDFVRLRCNEIFPADILLLSSSDPDGLCHIETANLDGETNLKRRQVVRGFSELVSEFNPLTFTSVIECEKPNNDLSRFRGCIIHDNGKKAGLYKENLLLRGCTLRNTDAVVGIVIYAGHETKALLNNSGPRYKRSKLERQMNCDVLWCVLLLVCMSLFSAVGHGLWIWRYQEKKSLFYVPKSDGSSLSPVTAAVYSFLTMIIVLQVLIPISLYVSIEIVKACQVYFINQDMQLYDEETDSQLQCRALNITEDLGQIQYIFSDKTGTLTENKMVFRRCTVSGVEYSHDANAQRLARYQEADSEEEEVVPRGGSVSQRGSIGSHQSVRVVHRTQSTKSHRRTGSRAEAKRASMLSKHTAFSSPMEKDITPDPKLLEKVSECDKSLAVARHQEHLLAHLSPELSDVFDFFIALTICNTVVVTSPDQPRTKVRVRFELKSPVKTIEDFLRRFTPSCLTSGCSSIGSLAANKSSHKLGSSFPSTPSSDGMLLRLEERLGQPTSAIASNGYSSQADNWASELAQEQESERELRYEAESPDEAALVYAARAYNCVLVERLHDQVSVELPHLGRLTFELLHTLGFDSVRKRMSVVIRHPLTDEINVYTKGADSVVMDLLQPCSSVDARGRHQKKIRSKTQNYLNVYAAEGLRTLCIAKRVLSKEEYACWLQSHLEAESSLENSEELLFQSAIRLETNLHLLGATGIEDRLQDGVPETISKLRQAGLQIWVLTGDKQETAVNIAYACKLLDHDEEVITLNATSQEACAALLDQCLCYVQSRGLQRAPEKTKGKVSMRFSSLCPPSTSTASGRRPSLVIDGRSLAYALEKNLEDKFLFLAKQCRSVLCCRSTPLQKSMVVKLVRSKLKAMTLAIGDGANDVSMIQVADVGVGISGQEGMQAVMASDFAVPKFRYLERLLILHGHWCYSRLANMVLYFFYKNTMFVGLLFWFQFFCGFSASTMIDQWYLIFFNLLFSSLPPLVTGVLDRDVPANVLLTNPQLYKSGQNMEEYRPRTFWFNMADAAFQSLVCFSIPYLAYYDSNVDLFTWGTPIVTIALLTFLLHLGIETKTWTWLNWITCGFSVLLFFTVALIYNASCATCYPPSNPYWTMQALLGDPVFYLTCLMTPVAALLPRLFFRSLQGRVFPTQLQLARQLTRKSPRRCSAPKETFAQGRLPKDSGTEHSSGRTVKTSVPLSQPSWHTQQPVCSLEASGEPSTVDMSMPVREHTLLEGLSAPAPMSSAPGEAVLRSPGGCPEESKVRAASTGRVTPLSSLFSLPTFSLLNWISSWSLVSRLGSVLQFSRTEQLADGQAGRGLPVQPHSGRSGLQGPDHRLLIGASSRRSQ
# partner: B1 partner
# B4: Phospholipid-transporting ATPase IF (Homo sapiens), Q9Y2G3 (parent)
# chain: MWRWIRQQLGFDPPHQSDTRTIYVANRFPQNGLYTPQKFIDNRIISSKYTVWNFVPKNLFEQFRRVANFYFLIIFLVQLMIDTPTSPVTSGLPLFFVITVTAIKQGYEDWLRHNSDNEVNGAPVYVVRSGGLVKTRSKNIRVGDIVRIAKDEIFPADLVLLSSDRLDGSCHVTTASLDGETNLKTHVAVPETALLQTVANLDTLVAVIECQQPEADLYRFMGRMIITQQMEEIVRPLGPESLLLRGARLKNTKEIFGVAVYTGMETKMALNYKSKSQKRSAVEKSMNTFLIIYLVILISEAVISTILKYTWQAEEKWDEPWYNQKTEHQRNSSKILRFISDFLAFLVLYNFIIPISLYVTVEMQKFLGSFFIGWDLDLYHEESDQKAQVNTSDLNEELGQVEYVFTDKTGTLTENEMQFRECSINGMKYQEINGRLVPEGPTPDSSEGNLSYLSSLSHLNNLSHLTTSSSFRTSPENETELIKEHDLFFKAVSLCHTVQISNVQTDCTGDGPWQSNLAPSQLEYYASSPDEKALVEAAARIGIVFIGNSEETMEVKTLGKLERYKLLHILEFDSDRRRMSVIVQAPSGEKLLFAKGAESSILPKCIGGEIEKTRIHVDEFALKGLRTLCIAYRKFTSKEYEEIDKRIFEARTALQQREEKLAAVFQFIEKDLILLGATAVEDRLQDKVRETIEALRMAGIKVWVLTGDKHETAVSVSLSCGHFHRTMNILELINQKSDSECAEQLRQLARRITEDHVIQHGLVVDGTSLSLALREHEKLFMEVCRNCSAVLCCRMAPLQKAKVIRLIKISPEKPITLAVGDGANDVSMIQEAHVGIGIMGKEGRQAARNSDYAIARFKFLSKLLFVHGHFYYIRIATLVQYFFYKNVCFITPQFLYQFYCLFSQQTLYDSVYLTLYNICFTSLPILIYSLLEQHVDPHVLQNKPTLYRDISKNRLLSIKTFLYWTILGFSHAFIFFFGSYLLIGKDTSLLGNGQMFGNWTFGTLVFTVMVITVTVKMALETHFWTWINHLVTWGSIIFYFVFSLFYGGILWPFLGSQNMYFVFIQLLSSGSAWFAIILMVVTCLFLDIIKKVFDRHLHPTSTEKAQLTETNAGIKCLDSMCCFPEGEAACASVGRMLERVIGRCSPTHISRSWSASDPFYTNDRSILTLSTMDSSTC
# partner: B1 partner
# Variants of: B1
# Details: with cc50a_human TMEM30A
row,Variant,effect of a mutation on the interaction
1,E184Q,increasing interaction strength
2,G183L,disrupting interaction strength
3,D412N,disrupting interaction strength

# Variants of: B2
# Details: with cc50a_human TMEM30A
row,Variant,effect of a mutation on the interaction
1,D414N,disrupting interaction strength
2,G185L,disrupting interaction strength
3,E186Q,increasing interaction strength

# Variants of: B3
# Details: with cc50a_human TMEM30A
row,Variant,effect of a mutation on the interaction
1,E203Q,increasing interaction strength
2,G202L,disrupting interaction strength
3,D427N,disrupting interaction strength

# Variants of: B4
# Details: with cc50a_human TMEM30A
row,Variant,effect of a mutation on the interaction
1,E180Q,increasing interaction strength
2,D407N,disrupting interaction strength
3,G179L,decreasing interaction strength
